Legend:
Mouse CD39 antigen = molecular target: T1, Mouse CD39 antigen (mouse, UniProt P55772 38-478); test: SPR (Biacore 8K), antibody captured on anti-human capture CM5 chip, antigen as analyte
T1 construct: Antigen used as analyte in SPR
T1 sequence (looked up): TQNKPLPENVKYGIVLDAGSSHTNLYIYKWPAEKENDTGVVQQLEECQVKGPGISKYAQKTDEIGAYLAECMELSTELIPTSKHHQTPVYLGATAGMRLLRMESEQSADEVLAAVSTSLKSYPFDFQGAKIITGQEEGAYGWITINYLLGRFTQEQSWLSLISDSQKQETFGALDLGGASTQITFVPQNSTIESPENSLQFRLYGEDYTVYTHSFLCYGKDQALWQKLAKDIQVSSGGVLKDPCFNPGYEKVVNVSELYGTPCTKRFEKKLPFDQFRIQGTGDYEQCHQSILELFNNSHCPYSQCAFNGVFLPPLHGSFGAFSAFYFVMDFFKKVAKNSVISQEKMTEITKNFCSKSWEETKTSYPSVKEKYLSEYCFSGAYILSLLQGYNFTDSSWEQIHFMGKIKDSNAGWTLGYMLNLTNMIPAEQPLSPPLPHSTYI
Experimental: (§1) The experimental method is as follows:
(§2) An Anti-Human Capture-CM5 chip (GE, #BR-1005-30) was prepared using coupling methods of a Human Antibody Capture Kit (GE, #BR-1008-39) and an amino coupling kit (GE, BR-1000-50). The chip was equilibrated at room temperature for about 20-30 min and loaded into a Biacore 8K instrument. The antigen and antibody were diluted to an experimental working concentration using an equilibration buffer. The antigen was diluted with an equilibrium buffer to 50 nM, and then diluted three-fold for seven concentration gradients, and two zero concentrations (i.e., the equilibrium buffer) and one repeat concentration (typically the lowest concentration repeat) were set. Experimental analysis was performed on 10 antigen concentrations (2 zero concentrations, 7 gradient concentrations, and 1 repeated concentration) in a cyclic manner according to an order of antibody, antigen, and regeneration. The antigen injection flow rate was 30 μL/min, the binding time was 120 s, and the dissociation time was 600 s. Following the analysis, the data was analyzed using the corresponding analysis program to confirm that there was no obvious reference binding. Using Kinetics and a 1:1 binding model, the data was fit to obtain the kinetic related parameters Ka, Kd, and KD values of the bispecific antibodies.

Mouse CD73 antigen = molecular target: T2, Mouse CD73 antigen (mouse, UniProt Q61503 29-549, limits assumed); test: as above
T2 construct: Antigen used as analyte in SPR
T2 sequence (looked up): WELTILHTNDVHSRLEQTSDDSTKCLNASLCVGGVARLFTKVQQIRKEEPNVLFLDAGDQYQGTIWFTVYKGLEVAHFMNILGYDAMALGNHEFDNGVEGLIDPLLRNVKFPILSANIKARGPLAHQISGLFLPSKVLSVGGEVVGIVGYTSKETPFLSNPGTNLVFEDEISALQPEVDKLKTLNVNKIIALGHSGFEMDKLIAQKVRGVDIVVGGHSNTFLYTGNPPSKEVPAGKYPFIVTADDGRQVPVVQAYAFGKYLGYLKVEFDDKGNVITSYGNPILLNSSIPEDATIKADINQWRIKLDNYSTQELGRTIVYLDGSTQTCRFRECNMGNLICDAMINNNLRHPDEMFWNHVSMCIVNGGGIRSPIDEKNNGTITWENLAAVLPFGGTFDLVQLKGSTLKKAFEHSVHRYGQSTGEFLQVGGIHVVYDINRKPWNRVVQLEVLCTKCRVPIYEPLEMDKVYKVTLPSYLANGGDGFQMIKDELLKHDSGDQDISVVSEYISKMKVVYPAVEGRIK
Experimental: as §1, §2

B1: CD39/CD73 bispecific antibody 700035 (CD39-VHH-CD73-IgG) (bispecific antibody)
heavy: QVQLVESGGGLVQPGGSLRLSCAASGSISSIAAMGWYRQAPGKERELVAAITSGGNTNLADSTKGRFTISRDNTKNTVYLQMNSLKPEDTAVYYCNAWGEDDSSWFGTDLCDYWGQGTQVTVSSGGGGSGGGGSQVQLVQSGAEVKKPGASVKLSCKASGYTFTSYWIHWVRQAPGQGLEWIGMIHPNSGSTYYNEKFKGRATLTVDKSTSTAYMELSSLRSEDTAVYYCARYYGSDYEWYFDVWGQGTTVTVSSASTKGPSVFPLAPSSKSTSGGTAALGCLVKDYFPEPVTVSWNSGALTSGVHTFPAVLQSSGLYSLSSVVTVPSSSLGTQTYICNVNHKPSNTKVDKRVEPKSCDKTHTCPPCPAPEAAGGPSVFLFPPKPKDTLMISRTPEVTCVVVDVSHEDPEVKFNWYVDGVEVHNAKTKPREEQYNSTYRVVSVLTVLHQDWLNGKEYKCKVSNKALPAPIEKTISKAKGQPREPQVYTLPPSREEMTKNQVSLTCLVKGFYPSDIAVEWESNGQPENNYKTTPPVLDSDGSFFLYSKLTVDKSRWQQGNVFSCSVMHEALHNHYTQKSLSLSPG
light: DIQMTQSPSSMSASVGDRVTITCKASQNVRTAVVWYQQKPGKAPKALIYLASNRHTGVPDRFSGSGSGTDFTLTISSLQPEDFATYFCLQHWNYPYTFGQGTKLEIKRTVAAPSVFIFPPSDEQLKSGTASVVCLLNNFYPREAKVQWKVDNALQSGNSQESVTEQDSKDSTYSLSSTLTLSKADYEKHKVYACEVTHQGLSSPVTKSFNRGEC
binding result (Mouse CD39 antigen): no binding (tested: 50 nM (highest antigen concentration))
binding result (Mouse CD73 antigen): no binding (tested: 50 nM (highest antigen concentration))

Reference: patent US20250361314A1 (SHANGHAI HUAOTA BIOPHARMACEUTICAL, published 2025)
